Assay [1] has as its target T1, PSMA on LNCaP cells (human, UniProt Q04609 1-750).
T1 construct: whole, on cells; also called LNCaP (PSMA+)
Description: western blot, LNCaP cells, 10.0 nM, 1 h. A general note: A western blot detects proteins with antibodies after separation by electrophoresis.

The target of assay [2] is T1, PSMA on LNCaP cells. As to the kind of experiment: western blot, LNCaP cells, 1.0 nM, 1 h.
Assay [3] has as its target T1, PSMA on LNCaP cells. As to the kind of experiment: western blot, LNCaP cells, 100.0 nM, 1 h.
The target in assay [4] is T1, PSMA on LNCaP cells. As to the kind of experiment: western blot, LNCaP cells, 1000.0 nM, 1 h.
Assay [5] deals with T1, PSMA on LNCaP cells. As to the kind of experiment: western blot, LNCaP cells, 1000.0 nM, 6 h.
Assay [6] has as its target T1, PSMA on LNCaP cells. As to the kind of experiment: western blot, LNCaP cells, 0.1 nM, 1 h.
The target of assay [7] is T1, PSMA on LNCaP cells. Description: western blot, LNCaP cells, 1.0 nM, 6 h.
The target in assay [8] is T1, PSMA on LNCaP cells. As to the kind of experiment: western blot, LNCaP cells, 0.1 nM, 6 h.
Assay [9] addresses T1, PSMA on LNCaP cells. As to the kind of experiment: western blot, LNCaP cells, 10.0 nM, 6 h.
The target of assay [10] is T1, PSMA on LNCaP cells. As to the kind of experiment: western blot, LNCaP cells, 100.0 nM, 6 h.
Assay [11] addresses T2, PSMA on PC3pip cells (UniProt Q04609 1-750, limits assumed). Description: cell-based or functional assay.
Assay [12] addresses T2, PSMA on PC3pip cells. As to the kind of experiment: cell-based or functional assay. This is another data set of the same source.
The target in assay [13] is T3, PSMA (commercial, Sino Bio cat #15877-H07H) (UniProt Q04609 44-750).
T3 construct: also called receptor
Description: SDS-PAGE time course, 37C.

For assay [14], the target named is T1, PSMA on LNCaP cells. Description: flow cytometry on LNCaP cells.
Assay [15] concerns the target T4, PSMA with a Fc tag (Acrobiosystem PSA-H5264) (UniProt Q04609 44-750).
T4 construct: Printed 'Fe tag'; captured on AHC sensors; also called PSMA with a Fe tag
Description: biolayer interferometry, PSMA-Fc on AHC sensor. A general note: In BLI a coated tip is dipped into the sample, and binding shifts an interference pattern.

Assay [16] has as its target T1, PSMA on LNCaP cells. Description: flow cytometry on LNCaP cells. The source holds these as a separate data set.
In assay [17] the target is T5, HER2 on BT-474 cells (human, UniProt P04626 23-1255).
T5 construct: whole, on cells
As to the kind of experiment: flow cytometry on BT-474 cells, pH 6.0.

Assay [18] concerns the target T5, HER2 on BT-474 cells. As to the kind of experiment: cell-based or functional assay.
Assay [19] addresses T6, Fc-tagged Her2 (Acrobiosystem #HER2-H5253) (UniProt P04626 23-652).
T6 construct: also called Her2-Fc; FcHer2
Description: SDS-PAGE time course.

Where a chain is given by its changes, count along the chain named. Numbers in names are those of the source. Read-outs that look alike come from different tables or passages of the source. [ ]: non-standard residue; d: D form. Tyr(SO2F) = N[C@@H](Cc1ccc(OS(=O)(=O)F)cc1)C(=O)O Where only a bound is given, the exact number is not on record here.

T1 sequence (Q04609 whole entry): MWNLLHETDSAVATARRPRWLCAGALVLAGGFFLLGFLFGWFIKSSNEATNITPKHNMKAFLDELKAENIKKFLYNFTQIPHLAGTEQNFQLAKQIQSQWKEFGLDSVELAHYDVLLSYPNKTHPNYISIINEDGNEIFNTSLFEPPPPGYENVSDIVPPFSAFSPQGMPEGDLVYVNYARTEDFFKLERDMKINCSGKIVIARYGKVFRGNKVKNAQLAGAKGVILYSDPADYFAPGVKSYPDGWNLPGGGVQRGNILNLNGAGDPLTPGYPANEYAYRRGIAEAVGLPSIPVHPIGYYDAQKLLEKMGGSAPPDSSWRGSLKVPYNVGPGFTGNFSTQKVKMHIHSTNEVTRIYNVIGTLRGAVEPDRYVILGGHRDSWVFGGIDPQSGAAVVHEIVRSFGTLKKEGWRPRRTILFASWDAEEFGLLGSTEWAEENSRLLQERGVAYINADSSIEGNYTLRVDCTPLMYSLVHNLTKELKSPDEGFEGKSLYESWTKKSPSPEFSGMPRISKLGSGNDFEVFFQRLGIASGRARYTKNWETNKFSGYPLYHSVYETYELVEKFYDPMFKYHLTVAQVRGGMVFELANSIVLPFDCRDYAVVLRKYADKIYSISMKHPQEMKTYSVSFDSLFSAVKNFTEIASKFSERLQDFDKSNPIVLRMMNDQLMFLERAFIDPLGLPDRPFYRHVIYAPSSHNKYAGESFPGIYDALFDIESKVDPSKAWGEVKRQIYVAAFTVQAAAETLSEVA
T2 sequence (Q04609 whole entry): as above
T3 sequence (Q04609 44-750 limits assumed): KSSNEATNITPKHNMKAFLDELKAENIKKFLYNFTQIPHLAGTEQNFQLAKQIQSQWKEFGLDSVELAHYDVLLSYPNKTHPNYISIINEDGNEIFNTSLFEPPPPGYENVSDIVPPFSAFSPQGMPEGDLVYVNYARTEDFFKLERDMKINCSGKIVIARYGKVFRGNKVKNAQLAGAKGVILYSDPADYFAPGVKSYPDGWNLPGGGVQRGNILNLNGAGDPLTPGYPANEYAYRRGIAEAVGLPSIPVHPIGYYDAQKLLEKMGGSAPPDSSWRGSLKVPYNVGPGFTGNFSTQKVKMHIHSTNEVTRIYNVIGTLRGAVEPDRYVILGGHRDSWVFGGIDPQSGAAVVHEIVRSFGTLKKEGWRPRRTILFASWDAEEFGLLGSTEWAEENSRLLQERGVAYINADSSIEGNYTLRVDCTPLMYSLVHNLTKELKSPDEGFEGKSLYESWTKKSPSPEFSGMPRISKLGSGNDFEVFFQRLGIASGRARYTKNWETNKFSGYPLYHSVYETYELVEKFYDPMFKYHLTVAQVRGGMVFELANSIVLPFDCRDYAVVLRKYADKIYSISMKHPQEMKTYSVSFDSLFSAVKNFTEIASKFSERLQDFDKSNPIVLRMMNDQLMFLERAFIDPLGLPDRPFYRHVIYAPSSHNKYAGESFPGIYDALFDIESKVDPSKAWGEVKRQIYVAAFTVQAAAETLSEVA
T4 sequence (Q04609 44-750 limits assumed): as above

B1: C36-FSY (bispecific antibody)
chain: QVQLQESGGGSVEAGGSLRLSCARSGWPYSTYSMNWFRQAPGKEREAVAGISSTMSGIIFAESKAGQFTISQDNAKNTVYLQMNNLKPEDTAIYYCAARRXFSLSSSSDDFDYWGQGTQVTVSSGGGGSGGGGSGGGGSQVQLQESGGGSVEAGGSLRLSCARSGWPYSTYSMNWFRQAPGKEREAVAGISSTMSGIIFAESKAGQFTISQDNAKNTVYLQMNNLKPEDTAIYYCAARRXFSLSSSSDDFDYWGQGTQVTVSSAAAYPYDVPDYGSLPETGGSPSTPPTPSPSTPP
modifications: FSY at both X of the entry (101 of each C24 part)
notes: Tandem of two copies of the same VHH
Take B1: the “Crosslinked PSMA (Total PSMA %)” value was determined as 58.7% in the assay with PSMA on LNCaP cells [1]; 13.8% with PSMA on LNCaP cells [2]; 82.7% in the assay with PSMA on LNCaP cells [3]; 90.3% with PSMA on LNCaP cells [4]; 92% with PSMA on LNCaP cells [5]; 3.8% with PSMA on LNCaP cells [6]. Also, the “Crosslinked PSMA (Total PSMA %)” value in the assay with PSMA on LNCaP cells [7] came out at 23.7%; in the assay with PSMA on LNCaP cells [8], 2.8%; with PSMA on LNCaP cells [9], 74.2%; with PSMA on LNCaP cells [10] it was 87.9%.

B2: C28-101FSY (VHH)
VHH: QVQLQESGGGSVEAGGSLRLSCARSGWPYSTYSMNWFRQAPGKEREAVAGISSTMSGIIFAESKAGQFTISQDNAKNTVYLQMNNLKPEDTAIYYCAARRXFSLSSSSDDFDYWGQGTQVTVSS
modifications: FSY at 101 (X of the entry); MC-PEG8-VC-PABC-MMAE on the C-terminal Cys
B2: in the assay with PSMA on PC3pip cells [11], the “fold potency against C28-101TYR” value is greater than 400 fold. Also, the “IC50 PC3pip (M), cell viability by CellTiter-Glo after 4 days” value with PSMA on PC3pip cells [12] is 1.8e-10 M.

B3: C40-102FSY (bispecific antibody)
chain: QVQLQESGGGSVQAGGSLRLSCTAPGYTDSNYYMSWFRQAPGKEREWVAGVNTGRGSTSYADSVKGRFTISQDNAKNTMFLQMNSLKPEDTAIYYCAVAAAXFADSLPKTQDEYILWGQGTQVTVSSAAAYPYDVPDYGSGGGGSGGGGSQVQLQESGGGSVQAGGSLRLSCTAPGYTDSNYYMSWFRQAPGKEREWVAGVNTGRGSTSYADSVKGRFTISQDNAKNTMFLQMNSLKPEDTAIYYCAVAAAHFADSLPKTQDEYILWGQGTQVTVSSAAAYPYDVPDYGSHHHHHH
modifications: FSY at 102 of the first sdAb
notes: also called C40-FSY; C1-C101A/C104A/H102(FSY)-L1-C1-C39
Consider B3, for which, in assay [13], the “fold crosslinking rate against C39-102FSY” value was determined as 2 fold and the t1/2 maximum crosslinking is roughly 30 min.

B4: C39-102FSY (VHH)
VHH: QVQLQESGGGSVQAGGSLRLSCTAPGYTDSNYYMSWFRQAPGKEREWVAGVNTGRGSTSYADSVKGRFTISQDNAKNTMFLQMNSLKPEDTAIYYCAVAAAXFADSLPKTQDEYILWGQGTQVTVSS
modifications: FSY at 102 (X of the entry)
notes: pelB leader cleaved off; also called C1-C101A/C104A/H102(FSY); C39-FSY C1
In [13], B4 yielded a t1/2 maximum crosslinking of roughly 60 min.

B5: C26-54FSY (VHH)
VHH: EVQLVESGGGLVQPGGSLTLSCAASRFMISEYSMHWVRQAPGKGLEWVSTINPXGTTDYAESVKGRFTISRDNAKNTLYLQMNSLKPEDTAVYYCDGYGYRGQGTQVTVSS
modifications: FSY at 54 (X of the entry); MC-PEG8-VC-PABC-MMAE on the C-terminal Cys
For B5, in the assay with PSMA on PC3pip cells [11], the “fold potency against C26-54TYR” value was 3.57 fold. For the same molecule, in the assay with PSMA on PC3pip cells [12], the “IC50 PC3pip (M), cell viability by CellTiter-Glo after 4 days” value was 9.39e-10 M.

B6: C2-54TYR (VHH)
VHH: B5 VHH with X54Y
notes: C2 sdAb with tyrosine at position 54; also called C2-TYR
In general, EC50 refers to the concentration needed to bring the measured effect to its halfway point. By Kd is commonly meant the concentration at which binding is half-saturated. Lower therefore signals tighter binding. For B6, the EC50 with PSMA on LNCaP cells [14] turned out to be 6.75 nM. This molecule also came in with a Kd in assay [15] of 9.1 nM.

B7: C2-54FSY (VHH)
VHH: B5 VHH
modifications: FSY at 54
notes: also called C2-A54(FSY); C2-FSY
For B7, the Kd in [15] was 10.9 nM. Also, a half-maximal response in the assay with PSMA on LNCaP cells [16] (EC50) required 12.2 nM.

B8: C33-54TYR (VHH)
VHH: QVQLQESGGGSVQAGGSLKLTCAASGYIFNSCGMGWYRQSPGRERELVSRISGYGDTWHKESVKGRFTISQDNVKKTLYLQMNSLKPEDTAVYFCAVCYNLETYWGQGTQVTVSS
modifications: PEG8-vc-PABC-MMAE on the C-terminal GGG
With B8, in the assay with HER2 on BT-474 cells [17], the EC50 was 2.5 nM. For the same molecule, in the assay with HER2 on BT-474 cells [18], the “IC50 (nM) - 5 h, BT474 viability after 5 h washout” value amounted to 21.6 nM and the “IC50 (nM) - 6 days, BT474 viability, continuous exposure” value was 0.328 nM.

B9: C33-52TYR (VHH)
VHH: B8 VHH with S52Y, Y54D
modifications: PEG8-vc-PABC-MMAE on the C-terminal GGG, by sortase ligation
As to B9, the EC50 in the assay with HER2 on BT-474 cells [17] was 160 nM. Besides, in the assay with HER2 on BT-474 cells [18], the “IC50 (nM) - 5 h, BT474 viability after 5 h washout” value is greater than 100 nM and the “IC50 (nM) - 6 days, BT474 viability, continuous exposure” value turned out to be 8.42 nM.

B10: C38-FSY (designed binder)
chain: MDLGKKLLEAARAGQDDEVRILMANGADVNAHDFYGITPLHLAANFGHLEIVEVLLKHGADVNAF[Tyr(SO2F)]YDNTPLHLAADAGHLEIVEVLLKYGADVNASDRDGHTPLHLAAREGHLEIVEVLLKNGADVNAQDKFGKTAFDISIDNGNEDLAEILQKLGGGGSRSDLGKKLLEAARAGQDDEVRILMANGADVNAKDEYGLTPLYLATAHGHLEIVEVLLKNGADVNAVDAIGFTPLHLAAFIGHLEIAEVLLKHGADVNAQDKFGKTAFDISIGNGNEDLAEILQKLNGS
notes: also called C15-66FSY-C16; biparatopic DARPin
On to B10, for which the crosslinking in assay [19] was 50%.

These data come from patent US20260263646A1 (ENLAZA THERAPEUTICS, published 2026).
